Assays:
[1] = molecular target: Tenebrio molitor α-amylase (Tenebrio molitor) (UniProt P56634)
[2] = molecular target: human salivary α-amylase (human) (UniProt P0DUB6)
[3] = molecular target: porcine pancreatic α-amylase (porcine) (UniProt P00690)
UniProt P00690, sequence (P00690 16-511): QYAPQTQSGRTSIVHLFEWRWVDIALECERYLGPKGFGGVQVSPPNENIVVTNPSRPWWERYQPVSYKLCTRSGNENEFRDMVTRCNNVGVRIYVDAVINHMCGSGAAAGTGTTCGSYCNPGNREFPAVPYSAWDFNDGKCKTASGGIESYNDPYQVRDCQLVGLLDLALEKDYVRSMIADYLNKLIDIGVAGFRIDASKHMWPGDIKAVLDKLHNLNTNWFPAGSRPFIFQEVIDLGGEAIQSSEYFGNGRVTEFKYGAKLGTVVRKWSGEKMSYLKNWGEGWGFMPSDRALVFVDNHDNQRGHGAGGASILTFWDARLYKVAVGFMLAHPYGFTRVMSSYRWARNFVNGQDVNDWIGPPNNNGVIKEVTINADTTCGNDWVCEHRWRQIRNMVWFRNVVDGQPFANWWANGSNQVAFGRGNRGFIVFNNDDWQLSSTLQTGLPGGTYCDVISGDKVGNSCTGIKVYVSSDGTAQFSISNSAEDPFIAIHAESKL

UniProt P0DUB6, sequence (P0DUB6 16-511): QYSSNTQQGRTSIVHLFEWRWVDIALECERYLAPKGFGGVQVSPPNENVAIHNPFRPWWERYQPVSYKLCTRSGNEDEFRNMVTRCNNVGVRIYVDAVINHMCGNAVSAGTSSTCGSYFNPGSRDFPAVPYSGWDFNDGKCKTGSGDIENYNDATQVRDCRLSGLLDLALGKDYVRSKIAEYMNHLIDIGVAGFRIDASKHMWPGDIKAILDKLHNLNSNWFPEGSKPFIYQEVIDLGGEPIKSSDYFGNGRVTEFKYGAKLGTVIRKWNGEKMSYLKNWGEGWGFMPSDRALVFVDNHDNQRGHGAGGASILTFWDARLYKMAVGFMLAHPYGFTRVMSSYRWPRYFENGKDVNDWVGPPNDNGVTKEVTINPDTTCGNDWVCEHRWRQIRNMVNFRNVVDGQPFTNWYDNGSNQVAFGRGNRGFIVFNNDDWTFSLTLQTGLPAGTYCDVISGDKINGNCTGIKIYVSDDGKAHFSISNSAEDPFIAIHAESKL
UniProt P56634, sequence (P56634 whole entry): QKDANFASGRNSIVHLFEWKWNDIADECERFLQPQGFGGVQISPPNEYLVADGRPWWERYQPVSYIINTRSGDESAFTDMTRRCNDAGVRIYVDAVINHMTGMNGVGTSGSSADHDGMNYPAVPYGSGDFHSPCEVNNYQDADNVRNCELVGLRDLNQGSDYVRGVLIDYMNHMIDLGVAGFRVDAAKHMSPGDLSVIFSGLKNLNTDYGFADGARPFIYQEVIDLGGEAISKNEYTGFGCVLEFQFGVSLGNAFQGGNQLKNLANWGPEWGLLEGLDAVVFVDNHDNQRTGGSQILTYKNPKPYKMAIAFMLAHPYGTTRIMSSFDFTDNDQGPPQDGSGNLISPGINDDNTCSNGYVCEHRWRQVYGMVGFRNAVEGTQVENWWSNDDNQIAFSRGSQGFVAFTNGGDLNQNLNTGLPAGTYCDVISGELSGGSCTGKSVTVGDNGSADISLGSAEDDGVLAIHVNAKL

inhibition of T. molitor α-amylase activity (starch hydrolysis, DNS reagent; fraction at 50 μg/mL, 37 °C, 30 min; relative to 5 mM EDTA as 100% inhibition) [1] [%] | inhibition of human salivary α-amylase activity (starch hydrolysis, DNS reagent; fraction at 50 μg/mL, 37 °C, 30 min; relative to 5 mM EDTA as 100% inhibition) [2] [%] | inhibition of porcine pancreatic α-amylase activity (starch hydrolysis, DNS reagent; fraction at 50 μg/mL, 37 °C, 30 min; relative to 5 mM EDTA as 100% inhibition) [3] [%] | Substance
98 | 93 | 89 | LTP-rich fraction P10 from Capsicum chinense seeds
55 | 91 | 84 | subfraction R1 of fraction P10 (lipid transfer protein, Capsicum chinense seeds)
72 | 85 | 81 | subfraction R2 of fraction P10 (lipid transfer protein, Capsicum chinense seeds)
93 | 92 | 80 | subfraction R3 of fraction P10 (lipid transfer protein, Capsicum chinense seeds)
